Measured values reported in patent US20240002477A1 (UNIVERSITY OF CHICAGO, published 2024).

B1: S144-509 (antibody, V domains shown)
VH: EVQLVQSGAEVKKPGESLKISCKGSAYTFTTYWIGWVRQMPGKGLEWMGIIYPGDSDTRYSPSFQGQVTISADKSISTAYLQWSSLKASDTAMYYCARLLLVAGPFDYWGQGTLVTVSS
VL: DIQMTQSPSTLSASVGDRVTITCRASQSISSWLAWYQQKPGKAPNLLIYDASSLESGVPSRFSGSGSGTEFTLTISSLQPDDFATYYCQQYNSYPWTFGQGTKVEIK
notes: recombinant human IgG1
B2: S20-74 (antibody, V domains shown)
VH: QVQLQESGPGLVKPSETLSLTCTVSGGSISSHYWSWIRQPPGKGLEQIGYMYYSGSTNYNPSLKSRVIISVDTSKNQFSLKLSSVTAADTAVYYCAGRDQLLYGADGFDIWGQGTMVTVSS
VL: QSALTQPPSASGSPGQSVTISCTGTSSDVGGYNYVSWYQQHPGKAPKLMIYEVSKRPSGVPDRYSGSKSGNTASLTVSGLQAEDEADYYCSSYAGSSNHVIFGGGTKLTVL
notes: recombinant human IgG1
B3: S144-67 (antibody, V domains shown)
VH: EVQLVQSGAEVKKPGESLKISCKGSGYSFTTYWIAWVRQMPGKGLEWVGIIYPDDSDTRYSPSFQGQVTISADKSIGTAYLQWSSLKASDTAMYYCARGQYYDFWSGAGGVDVWGQGTTVTVSS
VL: QSVLTQPPSVSGAPGQRVTISCTGSRSNIGAGYDVQWYQQVPGTAPKLLISGNSNRPSGVPDRFSGSKSGTSASLAITGLQAEDEADYYCQSYDSSLSGLRVFGGGTKLTVL
notes: recombinant human IgG1
B4: S24-1224 (antibody, V domains shown)
VH: QVQLVQSGAEVKKPGASVRVSCKASGYTFTSYYIYWVRQAPGQGLEWMGVINPSGGSTSYAQKFQGRVTLTRDTSTSTVYMDLSSLRSEDTAVYYCARDPIMWEVVTRGRGNWFDPWGQGTLVTVSS
VL: QSVLTQPPSVSGAPGQRVTIPCTGSSFNIGAGYDVHWYQQLPGTAPKLLIFGNSNRPSGVPDRFSGSRSGTSASLAITGLQAEDEADYYCQSYDSSLSGVVFGGGTTLTVL
notes: recombinant human IgG1
B5: S144-466 (antibody, V domains shown)
VH: EVQLVQSGAEVKKPGESLKISCKGSGYRFTRYWIGWVRQMPGKGLEWMGIIYLGDSETRYSPSFQGQVTISADNSISTAYLQWSSLKASDTAMYYCARSSNWNYGDYWGQGTLVTVSS
VL: DIQMTQSPSTLSASVGDRVTITCRASQSITSWLAWYQQKSGKAPKLLIYDASSLESGVPSRFSGSGSGTEFTLTISSLQPDDFATYYCQQYNSYPWTFGQGTKVEIK
notes: recombinant human IgG1
B6: S144-1406 (antibody, V domains shown)
VH: QVQLVQSGAEVKKPGASVKVSCKASGYTFTTYAMHWVRQAPGQRLEWMGWINAGNGNTKYSQNFQGRVTITRDTSASTAYMELSSLRSEDTAVYYCASLVGGDSSSWYDYMDVWGKGTTVTVSS
VL: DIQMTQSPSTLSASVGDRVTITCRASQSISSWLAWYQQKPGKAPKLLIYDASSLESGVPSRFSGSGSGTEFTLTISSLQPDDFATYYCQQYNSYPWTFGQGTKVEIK
notes: recombinant human IgG1
B7: S144-1079 (antibody, V domains shown)
VH: QVQLVQSGAEVKKPGSSVKVSCKASGDTFGSYSITWVRQAPGQGLEWMGRIIPVLGIANYAQKFQGRVTITADKSTSTAYMELSSLRSEDTAVYYCAGGGCSGGNCYSWYNWFDPWGQGSLVTVSS
VL: EIVLTQSPGTLSLSPGERATLSCRASQSVSSNYLAWYQQKPGQAPRLLIYGASSRATGIPERFSGSGSGTDFTLTISRLEPEDFAVYYCQQYGRSPYTFGQGTKLEIK
notes: recombinant human IgG1
B8: S24-1384 (antibody, V domains shown)
VH: EVQLVESGGGLVQPGGSLRLSCAVSGFTFSSYSMNWVRQAPGKGLEWVSYISSSSSIIYYADSVKGRFTISRDNAKNSLYLQMNSLRAEDTAVYYCARDFLDYSRSYSYGMDVWGQGTTVTVSS
VL: SYVLTQPPSVSVAPGQTARITCGGDNIGSKNVHWYQQKPGQAPVLVVFDDSDRPSGIPERFSGSNSGNTATLTISRVEAGDEADYYCQVWDSSSDHYVVFGGGTKLTVL
B9: S144-69 (antibody, V domains shown)
VH: EVQLVQSGAEVKKPGESLKISCKGSGYSFTSYWIGWVRQMPGKGLEWMGIIYPGDSDTRYSPSFQGQVTISADKSITTAYLQWSSLKASDTAMYYCARTQTTNWFDSWGQGTLVTVSS
VL: DIQMTQSPSTLSVSVGDRVTITCRASQSVSSWLAWYQQKPGKAPKLLIYDASSLESGVPSRFSGSGSGTEFTLTISSLQPDDFATYYCQQYNSFYTFGQGTKLEIK
notes: recombinant human IgG1

Each binder was assayed against SARS-CoV-2 spike receptor-binding domain (SARS-CoV-2, UniProt P0DTC2 319-541) (assay: mAb table, Specificity column (recombinant IgG1; ELISA)).
B1: binds.
B2: binds.
B3: binds.
B4: binds.
B5: binds.
B6: binds.
B7: binds.
B8: binds.
B9: binds.
